Test results from patent US20170355992, “FACTOR V/Va-TARGETING APTAMER COMPOSITONS AND METHODS OF USING THE SAME” (Duke University, published 2017).
Changes are numbered by the printed parent chain.

What was measured:
[1] = biological target: T1, Coagulation Factor Va (FVa), modified (Homo sapiens, UniProt P12259;P12259 P12259:29-737,P12259:1574-2224); assay: SPR; three runs: 6.222, 5.408, 5.115; text ~6 nM; HBS 2 mM CaCl2, 25 C; conditions: tags: modified FVa, protease-stabilised form described previously; label: 5'-biotin
T1 chain 1: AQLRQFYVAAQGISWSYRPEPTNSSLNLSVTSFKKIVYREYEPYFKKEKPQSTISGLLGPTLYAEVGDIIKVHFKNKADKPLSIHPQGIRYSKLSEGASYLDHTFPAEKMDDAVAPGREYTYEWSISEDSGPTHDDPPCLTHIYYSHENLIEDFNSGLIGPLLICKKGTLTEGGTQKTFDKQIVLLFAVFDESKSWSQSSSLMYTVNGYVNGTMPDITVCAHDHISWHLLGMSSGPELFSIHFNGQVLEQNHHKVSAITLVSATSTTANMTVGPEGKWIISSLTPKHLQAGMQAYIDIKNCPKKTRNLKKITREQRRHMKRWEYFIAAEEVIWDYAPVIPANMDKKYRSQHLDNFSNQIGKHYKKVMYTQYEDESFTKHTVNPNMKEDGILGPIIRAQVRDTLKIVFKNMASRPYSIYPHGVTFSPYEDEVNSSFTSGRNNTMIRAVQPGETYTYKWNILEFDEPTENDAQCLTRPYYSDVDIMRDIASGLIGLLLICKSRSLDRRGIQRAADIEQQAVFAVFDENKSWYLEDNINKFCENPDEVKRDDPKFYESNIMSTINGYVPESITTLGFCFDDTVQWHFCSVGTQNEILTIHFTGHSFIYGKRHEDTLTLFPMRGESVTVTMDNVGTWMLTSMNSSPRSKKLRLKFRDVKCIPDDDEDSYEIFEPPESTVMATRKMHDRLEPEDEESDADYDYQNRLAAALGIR
T1 chain 2: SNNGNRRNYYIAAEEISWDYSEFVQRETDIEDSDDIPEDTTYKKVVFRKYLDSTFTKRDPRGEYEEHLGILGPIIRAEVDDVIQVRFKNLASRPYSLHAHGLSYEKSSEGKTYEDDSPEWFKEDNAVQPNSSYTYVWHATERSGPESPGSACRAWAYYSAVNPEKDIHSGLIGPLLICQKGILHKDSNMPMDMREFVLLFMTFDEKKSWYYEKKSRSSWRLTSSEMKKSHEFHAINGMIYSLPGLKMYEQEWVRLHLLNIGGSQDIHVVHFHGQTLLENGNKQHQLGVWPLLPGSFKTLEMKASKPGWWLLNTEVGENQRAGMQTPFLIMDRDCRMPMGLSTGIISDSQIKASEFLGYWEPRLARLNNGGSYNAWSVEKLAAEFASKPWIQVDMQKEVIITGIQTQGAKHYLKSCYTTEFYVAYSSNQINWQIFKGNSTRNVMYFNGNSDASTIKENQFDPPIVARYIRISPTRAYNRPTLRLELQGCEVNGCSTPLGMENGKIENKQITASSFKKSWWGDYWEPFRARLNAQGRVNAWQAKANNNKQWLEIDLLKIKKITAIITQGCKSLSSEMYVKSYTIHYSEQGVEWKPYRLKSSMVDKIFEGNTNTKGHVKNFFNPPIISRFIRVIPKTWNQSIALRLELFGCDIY
Experimental: (§1) The T18.3 binding constants were determined using surface plasmon resonance (SPR) with a BiaCore3000 (GE Healthcare). This method was used to determine apparent KDs for T18.3 to modified FV, modified FVa, the FV heavy chain, and the FV light chain. The T18.3 aptamer was synthesized (Biosynthesis, Lewisville, Tex.) and included a biotin and PEG 11 spacer on the 5′ end to allow for immobilization of the aptamer on a biotin CAPture chip kit (GE Healthcare). Prior to chip coating, the biotinylated T18.3 was refolded using the same protocol as the in vitro transcribed T18.3 by heating to 95° C. for 3 minutes followed by 3 minutes at room temperature. Aptamer conjugation onto the chip was achieved by flowing aptamer solution over the chip at a rate of 2 μL/min for 5 minutes. For binding to the modified FV, FVa, and purified FV heavy chain, 5.0 ng of aptamer was coated onto the chip. For the purified FV light chain experiments 15.3 ng of aptamer was coated onto the chip. Binding experiments using SPR was performed at 25° C. in HBS with CaCl2, without the addition of BSA or PEG 8000. […] Increasing concentrations of protein were flowed over the T18.3-coated chip and apparent KD was determined by calculating the differences in response units (RU) from buffer for each protein concentration immediately before the end of each protein injection and plotted as ΔRU versus protein concentration. […]

[2] = biological target: T2, Coagulation Factor V (FV), modified (Homo sapiens, UniProt P12259 P12259:29-2224); assay: SPR; three runs: 16.55, 10.00, 8.213; text ~10 nM; HBS 2 mM CaCl2, 25 C; conditions: tags: modified FV, protease-stabilised form described previously; label: 5'-biotin
Experimental: as §1

Factor V light chain = Factor V light chain (UniProt P12259 P12259:1574-2224); assay: SPR; three runs: 1.926, 1.504, 7.997; text ~5 nM; HBS 2 mM CaCl2, 25 C; conditions: label: 5'-biotin
Experimental: as §1

[3] = biological target: T2, Coagulation Factor V (FV), modified; assay: filter; lead clone chosen by aPTT activity and binding to FV and FVa; no value given; conditions: tags: modified FV, protease-stabilised form described previously; label: 5'-32P
[4] = biological target: T1, Coagulation Factor Va (FVa), modified; assay: filter; lead clone; also at 2.0 uM inhibits FVa-phospholipid docking by light scattering (p125); conditions: tags: modified FVa, protease-stabilised form described previously; label: 5'-32P
[5] = biological target: T1, Coagulation Factor Va (FVa), modified; assay: filter; lead clone chosen by aPTT activity and binding to FV and FVa; no value given; conditions: tags: modified FVa, protease-stabilised form described previously; label: 5'-32P
Factor Xa = Factor Xa (Homo sapiens, UniProt P00742;P00742 P00742:41-179,P00742:235-488); assay: filter; no binding up to 1000 nM FXa; conditions: label: 5'-32P
[6] = biological target: T2, Coagulation Factor V (FV), modified; assay: filter; no binding above starting library; conditions: tags: modified FV, protease-stabilised form described previously; label: 5'-32P
[7] = biological target: T2, Coagulation Factor V (FV), modified; assay: FP_none filter; conditions: tags: modified FV, protease-stabilised form described previously; label: 5'-32P
Experimental: (§2) Apparent binding affinity of the aptamers to a purified protein was determined using double filter nitrocellulose binding assays. Binding of the radiolabeled pooled RNA, 11HMT, and 11Mut2 to modified FV and FVa was assessed by incubating trace amounts of radiolabeled RNA with serial dilutions of the purified target protein. For SELEX round binding, pooled RNAs were incubated with modified FV or FVa diluted two fold from 0 nM to 750-800 nM for both proteins. For 11HMT, the radiolabeled RNAs were incubated with both proteins from 0 nM to 500 nM. The radiolabeled RNAs were denatured and re-folded in Hepes-buffered saline (HBS) with CaCl2 (20 mM Hepes pH 7.4, 150 mM NaCl, 2 mM CaCl2), 0.01% bovine serum albumin (BSA), and 0.1% w/v polyethylene glycol 8000 (PEG 8000) by incubating at 95° C. for 3 minutes followed by cooling to room temperature for 3 minutes. The radiolabeled RNA alone was incubated at 37° C. for 5 minutes, followed by incubation with the protein in HBS with CaCl2, 0.01% BSA, and 0.1% w/v PEG 8000 at 37° C. for 5 minutes. […] Bound and unbound RNA was quantitated using a Storm 825 phosphoimager (GE Healthcare, Little Chalfont, Buckinghamshire, UK) and quantified via densitometry.
Target sequence in this assay (P12259 29-2224, one chain of several): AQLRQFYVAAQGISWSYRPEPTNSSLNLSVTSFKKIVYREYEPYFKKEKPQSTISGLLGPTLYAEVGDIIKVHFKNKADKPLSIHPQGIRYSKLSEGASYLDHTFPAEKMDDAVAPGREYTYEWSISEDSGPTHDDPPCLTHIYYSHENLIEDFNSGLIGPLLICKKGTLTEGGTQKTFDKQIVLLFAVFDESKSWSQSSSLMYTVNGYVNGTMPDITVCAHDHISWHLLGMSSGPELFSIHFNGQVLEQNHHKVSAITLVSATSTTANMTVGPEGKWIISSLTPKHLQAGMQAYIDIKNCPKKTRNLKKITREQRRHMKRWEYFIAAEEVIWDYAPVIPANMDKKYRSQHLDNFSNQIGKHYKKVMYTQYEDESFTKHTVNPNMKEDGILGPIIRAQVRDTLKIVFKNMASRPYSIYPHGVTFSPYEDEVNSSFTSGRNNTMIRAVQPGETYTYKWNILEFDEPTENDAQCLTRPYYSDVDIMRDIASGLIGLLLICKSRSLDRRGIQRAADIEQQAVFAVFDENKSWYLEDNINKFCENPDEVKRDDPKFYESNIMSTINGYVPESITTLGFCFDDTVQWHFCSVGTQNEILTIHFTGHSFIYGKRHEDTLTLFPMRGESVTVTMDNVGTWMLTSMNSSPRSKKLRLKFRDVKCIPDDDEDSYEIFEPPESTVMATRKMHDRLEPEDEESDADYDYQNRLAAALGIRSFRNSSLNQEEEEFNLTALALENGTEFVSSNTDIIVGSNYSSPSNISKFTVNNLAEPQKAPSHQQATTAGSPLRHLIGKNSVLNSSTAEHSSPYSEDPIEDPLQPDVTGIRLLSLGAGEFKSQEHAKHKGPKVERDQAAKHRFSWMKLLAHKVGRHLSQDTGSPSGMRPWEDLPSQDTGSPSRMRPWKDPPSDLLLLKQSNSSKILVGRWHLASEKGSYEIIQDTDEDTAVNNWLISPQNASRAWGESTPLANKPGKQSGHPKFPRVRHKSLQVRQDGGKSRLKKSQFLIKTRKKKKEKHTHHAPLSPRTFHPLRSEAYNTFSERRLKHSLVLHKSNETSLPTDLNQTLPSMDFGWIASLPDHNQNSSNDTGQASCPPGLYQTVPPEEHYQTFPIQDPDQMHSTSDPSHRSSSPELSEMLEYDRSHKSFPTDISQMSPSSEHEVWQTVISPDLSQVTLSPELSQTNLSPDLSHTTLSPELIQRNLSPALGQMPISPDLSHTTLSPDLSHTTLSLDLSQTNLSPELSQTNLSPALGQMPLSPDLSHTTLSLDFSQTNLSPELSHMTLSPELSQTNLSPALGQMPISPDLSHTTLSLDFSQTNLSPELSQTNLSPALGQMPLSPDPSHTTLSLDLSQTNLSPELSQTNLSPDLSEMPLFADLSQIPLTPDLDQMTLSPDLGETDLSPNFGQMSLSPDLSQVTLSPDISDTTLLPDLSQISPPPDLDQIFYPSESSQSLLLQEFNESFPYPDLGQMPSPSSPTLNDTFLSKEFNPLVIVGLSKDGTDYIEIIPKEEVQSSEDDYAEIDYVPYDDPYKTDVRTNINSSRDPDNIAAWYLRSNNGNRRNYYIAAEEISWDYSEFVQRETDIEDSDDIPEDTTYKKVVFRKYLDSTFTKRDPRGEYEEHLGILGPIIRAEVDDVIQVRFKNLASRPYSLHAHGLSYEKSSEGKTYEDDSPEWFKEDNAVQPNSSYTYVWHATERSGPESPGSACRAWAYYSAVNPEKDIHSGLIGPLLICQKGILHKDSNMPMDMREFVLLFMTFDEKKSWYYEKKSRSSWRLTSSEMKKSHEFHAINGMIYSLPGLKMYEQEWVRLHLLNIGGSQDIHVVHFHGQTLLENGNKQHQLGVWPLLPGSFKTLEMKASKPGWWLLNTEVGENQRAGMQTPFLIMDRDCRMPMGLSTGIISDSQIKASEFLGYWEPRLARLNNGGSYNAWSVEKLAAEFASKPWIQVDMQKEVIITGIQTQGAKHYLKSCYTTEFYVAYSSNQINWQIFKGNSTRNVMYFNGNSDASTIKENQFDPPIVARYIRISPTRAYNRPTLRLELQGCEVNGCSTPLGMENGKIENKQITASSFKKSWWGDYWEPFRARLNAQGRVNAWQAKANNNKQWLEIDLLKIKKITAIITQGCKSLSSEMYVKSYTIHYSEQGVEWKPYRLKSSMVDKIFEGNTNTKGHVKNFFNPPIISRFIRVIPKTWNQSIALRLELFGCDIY

[8] = biological target: T1, Coagulation Factor Va (FVa), modified; assay: filter; HBS 2 mM CaCl2, 0.01% BSA, 0.1% PEG 8000, 37 C; low Bmax; conditions: tags: modified FVa, protease-stabilised form described previously; label: 5'-32P
Experimental: as §2

[9] = biological target: T1, Coagulation Factor Va (FVa), modified; assay: filter; no binding above starting library; conditions: tags: modified FVa, protease-stabilised form described previously; label: 5'-32P
Experimental: as §2

[10] = biological target: T2, Coagulation Factor V (FV), modified; assay: filter; no binding above starting library; conditions: tags: modified FV, protease-stabilised form described previously; label: 5'-32P; remark: listed apart in the source
Experimental: as §2

Chain of Factor Xa (P00742 41-179, chain 1 of 2): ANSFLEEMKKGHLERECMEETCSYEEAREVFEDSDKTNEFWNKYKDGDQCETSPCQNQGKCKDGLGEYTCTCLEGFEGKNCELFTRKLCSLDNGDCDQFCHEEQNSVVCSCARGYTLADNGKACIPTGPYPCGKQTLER
Chain of Factor Xa (P00742 235-488, chain 2 of 2): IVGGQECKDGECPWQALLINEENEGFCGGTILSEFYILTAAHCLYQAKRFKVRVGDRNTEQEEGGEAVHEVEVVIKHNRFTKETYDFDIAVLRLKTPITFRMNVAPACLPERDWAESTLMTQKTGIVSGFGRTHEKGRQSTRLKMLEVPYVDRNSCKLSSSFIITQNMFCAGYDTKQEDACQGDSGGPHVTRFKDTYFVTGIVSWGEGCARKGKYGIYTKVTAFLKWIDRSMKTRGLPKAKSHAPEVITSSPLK

B1: T18.3 biotinylated (ssRNA)
RNA: GGACUUGGAUAACCUCACCGCAAUGGCGGCUUGUCAGACGACUCGCUGAGGAUCCGAG
modifications: 2'-F C and U; 5' biotin and PEG11 spacer
[1]
  Kd: 5.64 nM
[2]
  Kd: 11.7 nM
Factor V light chain
  Kd: 3.47 nM

B2: FV R8c7 (ssRNA)
RNA: GGGAGGACGAUGCGGUCGCCCAAACUUGGAUAACCUCACCGCAAUGGCGGCUUGUCAGACGACUCGCUGAGGAUCCGAGA
modifications: 2'-F C and U
[3]
  binding result: binds
[4]
  binding result: binds

B3: FVa R9c11 (ssRNA)
RNA: GGGAGGACGAUGCGGUCACGCCCCUCAGGAUCCAACGCACAAUUACGUGCCUUGUCAGACGACUCGCUGAGGAUCCGAGA
modifications: 2'-F C and U
[5]
  binding result: binds
[3]
  binding result: binds

B4: T18.3 (ssRNA)
RNA: B1 RNA
modifications: 2'-F C and U
Factor Xa
  binding result: no binding

B5: 18.3Mut1 (ssRNA)
RNA: B1 RNA with C30A, U31G, U32G
modifications: 2'-F C and U
Factor Xa
  binding result: no binding
[6]
  binding result: no binding

## GGAUCCAACGCACAAUUACGUGCCUUGUCAGACGACUCGCUGAGGAUCC (ssRNA, 2'-F C and U) [11HMT]
[7]
  Kd: 23.2 nM
[8]
  Kd: 0.822 nM

## GGAUCCAACGCACAAUUACGUGCCGGUUCAGACGACUCGCUGAGGAUCC (ssRNA, 2'-F C and U) [11Mut2]
[9]
  binding result: no binding
[10]
  binding result: no binding
